Data taken from patent publication US8754031B2, “Use of prolactin receptor antagonists in combination with an agent that inactivates the HER2/neu signaling pathway” (Oncolix, Inc., priority 2004, dated 2014).
Where a chain is given by its changes, count along the chain named. Numbers in names are those of the source.

Assays:
[1] = test system: human breast cancer cell lines MDA-MB-134, T-47D, BT-474 and MCF-7; assay: TUNEL assay, apoptosis by DNA fragmentation in breast cancer cell lines; format: cell-based
Procedure: The human breast cancer cell lines MDA-MB-134, T-47D, BT-474 and MCF-7 were obtained from ATCC. These breast cancer cell lines were chosen based on their PRLR levels. The cell line T-47D had the highest PRLR level followed by MDA-MB-134, BT-474, MCF-7 in decreasing order of PRLR levels (Peirce S and Chen W Y., 2001, J. Endocrinol. 171:R1-4).
T-47D cells obtained from ATCC were grown in RPMI 1640 (phenol red free), supplemented with 10% FBS (GIBCO BRL). BT-474 cells were grown in RPMI 1640 medium (phenol red free) supplemented with 10% FBS and ATCC recommended supplements. MCF-7 cells were grown in DMEM medium (phenol red free), supplemented with 10% FBS. The cells were grown at 37° C. in a humid atmosphere in the presence of 5% CO2. The MDA-MB-134 cells were grown in Leibovitz's L-15 medium supplemented with 20% FBS and grown in CO2 free atmosphere. The breast cancer cells were trypsinized (0.02% Trypsin—EDTA) and grown in their respective media (phenol red free) supplemented with 10% CSS (Charcoal stripped serum) for a week. Subsequently the cells were trypsinized again and plated onto an 8 chambered slide system (Lab Tek II) at a confluence of 60-70% per chamber. The next day treatments were performed on the breast cancer cells using their respective media (phenol red free), supplemented with 1% CSS. The MDA-MB-134 VI cells were grown in phenol red containing medium, but with the same serum conditions as the other breast cancer cells.
(§1) Terminal deoxynucleotidyl transferase mediated dUTP nick end labeling (TUNEL) assay. Nicks of the fragmented DNA are labeled at their 3-OH ends. The fluorescein-labeled dUTP is incorporated at the 3-OH ends by using the enzyme terminal deoxynucleotidyl transferase. After the assigned period of treatment the chambers were dismantled as per the manufacturer's instructions and the TUNEL assay (Apoptosis detection system, Fluorescein-Promega) was performed as per the manufacturer's instructions. The slide was examined under a FITC filter using an Olympus IX 70 microscope system.

T47D cells = assay: Cell proliferation assay (cell counting), comparison with estrogen and tamoxifen; format: cell-based, human
Procedure: Cell proliferation assays. hPRLA was tested for its ability to inhibit breast cancer cell proliferation in tissue culture. The human breast cancer cells were grown in corresponding culture media according to ATCC recommendations. Cells were maintained at 37° C. in a humidified atmosphere of 5% CO2 in air. The assay conditions were essentially as described by Ginsburg and Vonderharr (Cancer Res., 55:2591-2595 (1995)). For individual growth experiments, cells were plated in 12 well culture plates at a density of approximately 2×10^4/ml, 1 ml/well. Cells were then allowed to attach for one day (T-47D, MCF-7, HTB19, and HTB20 cells, except for HTB 123, which is a suspension cells), then the overlying media was removed and changed to serum-free conditions with media containing ITS (insulin-transferring-selenium-BSA-linoleic acid culture supplement; Collaborative Research Bedford, Mass.). Varying concentrations of hPRL alone or in combination with hPRLA were introduced. After an additional three days in culture, cells were harvested after brief trypsinization and counted in a cell counter.
For certain experiments, a mixed cell culture assay was used. In this assay, breast cancer cells were co-cultured with expressor cells which had been transfected with nucleic acid encoding PRL or a PRL variant and expressing those recombinant proteins. By varying the number of expressor cells, the amount of PRL or PRL variant present in the mixed cell culture was increased or decreased. A fixed number of breast cancer cells (T47D) were added to wells of a multi-well cell culture plate. In certain wells, which served as a control, no expresser cells were added. Then, increasing numbers of expresser cells (transfected L cells expressing either HPRL (L-PRL) or hPRLA (L-PRLA)) were added to breast cancer cell-containing wells to create mixed cultures. The same numbers of expressor cells were cultured in parallel (without T47D cells) to serve as controls. After culturing under standard conditions for a period of time, the number of cells present in the wells was counted, and the number of L cells in the corresponding control culture was subtracted. The resulting number could then be compared to the number of T47D cells in the T47D control culture to evaluate the effects of the recombinant product on breast cancer cell proliferation.

[2] = Preclinical safety in animals; format: in vivo; conditions: mice and rabbits, even at high doses
Description: Previously, the inventors developed a hPRLR antagonist, G129R. G129R is prolactin with a single amino acid substation; the glycine at position 129 of the native sequence is replaced with an arginine. G129R has anti-tumor effects in cultured human breast cancer cells and in nude mouse models.

HER2 = HER2 phosphorylation, immunoprecipitation and Western blot (Example 11); format: cell-based, human; conditions: multiple breast cancer cells
Description: Human PRL signals via cell surface specific receptors that lead to JAK2/STAT/MAPK activation, which ultimately promotes cell proliferation. Phosphorylation of HER2 protein is a crucial step in the activation of its downstream signaling molecules such as Ras/MAPK cascade.
Immunoprecipitation experiments confirm the role of hPRL and G129R in regulation of phosphorylation of HER2 in multiple breast cancer cell lines. A panel of breast cancer cell lines with different levels of hPRLR and HER2 are treated with different doses of PRL (from ng/ml to ug/ml to establish a dose response curve) and terminated at the various time points (from 15 min to 24 hr to establish response time course). The optimal stimulatory dose and the response time courses are determined for each cell lines. Anti-HER2 antibody is used to immunoprecipitate HER2 in cell lysates and anti-phospho-HER2 antibody is used (Western blot) to identify the level of phosphorylated Her2 in response to the treatment.

[3] = in vivo
[4] = test system: Stat5a/b phosphorylation in T-47D cells; assay: Inhibition of phosphorylation of Stat5a/b, Western blot; format: cell-based, human; conditions: 48 hours, 10 μg, in the presence of hPRL 100 ng/ml (FIG. 6)
Procedure: FIG. 6. […] T-47D cells were cultured overnight at 60% confluency and were maintained in phenol red-free and serum-free RPMI-1640 for 72 hours before stimulation. […] Lane A is the control cells that are untreated. […] Activation of Stat5 was analyzed by WB with anti-phospho-specific antibodies in 50 μg protein extracts.

prostate cancer cells = assay: TUNEL assay, apoptosis in prostate cancer cells; format: cell-based; conditions: two prostate cancer cells, 250 ng, 24 hours
Procedure: as §1
The samples were in duplicate and each sample constituted about 2 million cells.

[5] = test system: STAT5 phosphorylation in T-47D human breast cancer cells; assay: hPRL induction of tyrosine phosphorylation of STAT5 protein; format: cell-based
Description: Assay of hPRL induction of tyrosine phosphorylation of STAT5 protein. […] Tyrosyl phosphorylation of STAT 5 is a receptor mediated event and is thought to be an important step in ligand-induced signal transduction (Wakao et al., EMBO J., 13:2182-2191 (1994); Kazansky et al., Mol. Endocrinol., 9:1598-1609 (1995); Waxman et al., J. Biol. Chem., 270:13262-13270 (1995)). This assay was used to evaluate the ability of hPRL and hPRLA to inhibit induction of STAT 5 phosphorylation by wild type PRL.
Briefly, human breast cancer cells were plated in 12-well plates. After pre-incubation in serum-free DMEM for 2-3 hours, the cells were exposed to various concentration of hPRL and hPRLA in serum-free DMEM. […]

T-47D cells = assay: Cell proliferation, ViaCount reagent and Guava PCA cytometer (viable cells); format: cell-based, human; conditions: 24 hours of treatment, G129R 1 μg/ml, HERCEPTIN 20 μg/ml (FIG. 3)
Procedure: FIG. 3. […] The y-axis represents percent viable cells after each treatment.
This assay permits the determination of the number of total and viable cells in cultures. Cell proliferation was determined as a measure of the number of viable cells after 24 hours of treatment (FIG. 3).

## CC/C(=C(\c1ccc(O)cc1)c1ccc(OCCN(C)C)cc1)c1ccccc1 [4-OH-Tamoxifen, reference compound]
[1]; T-47D, MCF-7 or BT-474 cells, concentration as high as 1 μM
  apoptosis, DNA fragmentation: did not induce apoptosis

## CC/C(=C(\c1ccccc1)c1ccc(OCCN(C)C)cc1)c1ccccc1 [tamoxifen, reference compound]
T47D cells
  proliferation of T47D cells relative to untreated control cultures: comparable inhibitory effect

## estrogen [reference compound]
T47D cells
  proliferation of T47D cells relative to untreated control cultures: increased proliferation

B1: G129R: hPRLR antagonist: prolactin in which the glycine at position 129 of the native sequence is replaced with an arginine (protein)
chain: LPICPGGAARCQVTLRDLFDRAVVLSHYIHNLSSEMFSEFDKRYTHGRGFITKAINSCHTSSLATPEDKEQAQQMNQKDFLSLIVSILRSWNEPLYHLVTEVRGMQEAPEAILSKAVEIEEQTKRLLERMELIVSQVHPETKENEIYPVWSGLPSLQMADEESRLSAYYNLLHCLRRDSHKIDNYLKLLKCRIIHNNNC
[2]
  safety in animals: safe
HER2
  phosphorylation of HER2: able to specifically block HER2 phosphorylation
[3]
  half-life: 1 to 2 h
[1]; 250 ng, 24 hours treatment, all four PRLR positive breast cancer cell lines
  apoptosis, DNA fragmentation: induced apoptosis
[1]; after 2 hours of treatment, 50 ng/ml
  DNA fragmentation in breast cancer cells: apparent
[4]
  inhibition of Stat5a/b phosphorylation: inhibitory effect
Prostate cancer cells
  apoptosis detected by TUNEL assay: underwent apoptosis
T47D cells
  proliferation of T47D cells relative to untreated control cultures: comparable inhibitory effect
[5]
  block of hPRL-induced phosphorylation of STAT5 proteins: able to block the signal transduction induced by hPRL
T-47D cells
  decrease in proliferative ability / cell number compared to untreated control cells: 21.5%

B2: hPRL: human prolactin, wild type hormone, used as positive control and stimulus (protein)
chain: B1 chain with R129G
HER2
  phosphorylation of HER2: able to phosphorylate HER2
T47D cells
  proliferation of T47D cells relative to untreated control cultures: increased proliferation
